Results from patent US20180022822A1, “NOVEL ANTI-FIBROBLAST ACTIVATION PROTEIN (FAP) BINDING AGENTS AND USES THEREOF” (Mabimmune Diagnostics AG, priority 2016, published 2018).

Experiments:
[1] = target: T1, active recombinant human FAP (Homo sapiens, UniProt Q12884); experiment: DQ-gelatin cleavage inhibition, active recombinant human FAP; type: biochemical
T1 construct: purchased Sino Biologicals 10464-H07H
T1 sequence (Q12884 26-760 limits assumed): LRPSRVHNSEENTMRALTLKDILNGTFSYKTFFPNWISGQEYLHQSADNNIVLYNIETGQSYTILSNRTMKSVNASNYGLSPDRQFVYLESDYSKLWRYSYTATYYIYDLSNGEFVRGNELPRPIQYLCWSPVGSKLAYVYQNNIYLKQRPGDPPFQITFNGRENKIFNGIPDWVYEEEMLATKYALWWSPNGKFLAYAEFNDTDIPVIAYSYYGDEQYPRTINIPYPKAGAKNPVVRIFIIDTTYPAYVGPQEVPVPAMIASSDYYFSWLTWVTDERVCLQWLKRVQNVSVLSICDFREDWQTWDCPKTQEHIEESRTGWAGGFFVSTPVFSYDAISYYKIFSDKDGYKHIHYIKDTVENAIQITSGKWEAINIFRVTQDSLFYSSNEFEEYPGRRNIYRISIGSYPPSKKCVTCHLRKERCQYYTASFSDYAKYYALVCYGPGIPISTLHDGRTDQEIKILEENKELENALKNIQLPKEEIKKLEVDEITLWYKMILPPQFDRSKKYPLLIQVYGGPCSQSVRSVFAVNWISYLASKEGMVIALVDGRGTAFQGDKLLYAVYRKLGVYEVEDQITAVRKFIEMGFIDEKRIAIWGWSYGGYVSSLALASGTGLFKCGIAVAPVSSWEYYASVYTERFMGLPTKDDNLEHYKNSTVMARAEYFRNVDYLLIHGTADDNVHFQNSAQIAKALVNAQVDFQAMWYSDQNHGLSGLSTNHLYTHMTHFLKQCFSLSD
Description: A black flat bottom standard 96-well ELISA plate was blocked for 1 hour at 37° C. using sterile blocking buffer: 5% bovine serum albumin (BSA) in phosphate buffered saline (PBS). The blocking buffer was removed and replaced with: 40 μL of fresh blocking buffer, 40 μL of antibody in PBS, 10 μL of 20 nM active recombinant human FAP (Sino Biologicals, 10464-H07H) in PBS, and 10 μL of DQ-Gelatin (Molecular Probes, D-12054) in PBS. Fluorescence intensity was measured at 485 nm excitation and 530 nm emission every 3 min over a total time of 45 min, while gently shaking the plate for twenty seconds before every measurement. To calculate the fractional activity, the steady state velocity (Δ 530 nm emission/Δ time) […].
To determine the inhibitory ability of NI-206.82C2 against active recombinant human FAP (Sino Biologicals, 10464-H07H) a black 96 well ELISA plate was blocked for 1 h at 37° C. with sterile 5% BSA in PBS. After removing the blocking solution, 40 uL of 12.5% BSA in PBS was added to each well. Then FAP-targeting agents (NI-206.82C2, F19, and Val-Boro-Pro (PT-100; Point therapeutics)) were added to the appropriate wells for a final concentration of 500, 10, 3.03, 1.01, 0.031, 0.001, and 0 nM. 10 uL of active recombinant human FAP was then added to all the wells for a final assay concentration of 20 nM. […]

[2] = tested on: MOPC315.BM multiple myeloma cells and tumor stroma; experiment: immunofluorescence on murine multiple myeloma bone tissue; set-up: species or system mouse; conditions: Cy5 labelled antibody, bone sections
Description: BALB/c mice were injected with 2×10^6 of the murine multiple myeloma cell line […] intravenously. BALB/c mice were injected with a vehicle-only control. Bone tissue was harvested and fixed in 4% PFA, decalcified in 10% EDTA (pH 7.4), embedded in paraffin before being sectioned (4 μm) and rehydrated. Then, CD138 mAb (Clone 281-2, BD Pharmingen) and Cy5 labelled NI-206.82C2 were used to identify MOPC315.BM.Luc cell infiltration, and NI-206.82C2 binding to these cells and surrounding stromal cells in the tissue sections. Stained tissue sections were then imaged using a fluorescent microscope (FIG. 13).

4T1 breast tumor = conditions: mouse, in vivo
Description: A murine cancer model was generated by the injection of 100′000 4T1 cultured breast tumor cells orthotopically into the 2nd left breast of Balb/c immunocompetent mice and allowed to grow for 7 days. Prior to in vivo imaging, the animals were shaved and de-epilated to remove fur for minimal absorbance and scattering of the incident optical light. In-vivo imaging was performed with the Maestro 500 imaging system (Cambridge Research Inc, Woburn, USA). For A680-82C2 detection, a band pass filter from 615 nm-665 nm and a highpass filter over 700 nm were used for excitation and emission light respectively, and fluorescence was detected by a CCD camera (cooled to 11° C.). A series of images were acquired at different wavelengths and then subjected to spectral unmixing (deconvolution of collected optical spectra; this enabled the unmixing of the Alexa680 fluorescence pattern from tissue auto-fluorescence and other spectral contributions).
Whole mice images were acquired at the following timepoints: before antibody injection, immediately after antibody injection, 6 h, 24 h, 48 h, and 6 d after antibody injection.

B1: NI-206.82C2: human-derived recombinant anti-FAP antibody; VH SEQ ID NO: 2 or 4 (PIMC), VL SEQ ID NO: 6 (antibody, V domains shown)
VH: QVQLQQSGPGLVKPSQTLSLTCAISGDSVSSNSVTWNWIRQSPSRGLEWLGRTYYRSKWYNDYAVSVKGRITINPDTSKNQFYLQLKSVTPEDAAVYYCARDSSILYGDYWGQGTLVTVSS
VL: QAVLTQPSSLSASPGASASLTCTLPSGINVGTYRIFWFQQKPGSPPQYLLSYKSDSDNHQGSGVPSRFSGSKDASANAGILLISGLQSEDEADYYCMIWHSSAWVFGGGTKLTVL
[1]
  potency for inhibiting active recombinant human FAP compared to Val-boro-Pro and F19: higher potency
[2]
  binding in the syngeneic MOPC315.BM mouse model: binds to multiple myeloma cells and tumor stroma
4T1 breast tumor
  antibody concentration after 6 d post antibody injection: declines to almost zero
